Data as given in paper PMC3484126.
Where two headings read alike, the source gives them in different places.

Assays:
KLF4 full-length [1] = biological target: T1, KLF4 full-length (UniProt O43474-1 1-479); details: protein: recombinant; tags: N-terminal 6xHis-lipoyl-TEV tag, cleaved; label: 5' fluorescein
KLF4 full-length [2] = biological target: T1, KLF4 full-length; details: protein: recombinant; tags: N-terminal 6xHis-lipoyl-TEV tag, cleaved; label: 5' fluorescein; remark: listed apart in the source
KLF4 full-length [3] = biological target: T1, KLF4 full-length; details: protein: recombinant; tags: N-terminal 6xHis-lipoyl-TEV tag, cleaved; label: 5' Alexa488

T1 sequence (O43474 other isoform, or with tags, fused parts or gaps): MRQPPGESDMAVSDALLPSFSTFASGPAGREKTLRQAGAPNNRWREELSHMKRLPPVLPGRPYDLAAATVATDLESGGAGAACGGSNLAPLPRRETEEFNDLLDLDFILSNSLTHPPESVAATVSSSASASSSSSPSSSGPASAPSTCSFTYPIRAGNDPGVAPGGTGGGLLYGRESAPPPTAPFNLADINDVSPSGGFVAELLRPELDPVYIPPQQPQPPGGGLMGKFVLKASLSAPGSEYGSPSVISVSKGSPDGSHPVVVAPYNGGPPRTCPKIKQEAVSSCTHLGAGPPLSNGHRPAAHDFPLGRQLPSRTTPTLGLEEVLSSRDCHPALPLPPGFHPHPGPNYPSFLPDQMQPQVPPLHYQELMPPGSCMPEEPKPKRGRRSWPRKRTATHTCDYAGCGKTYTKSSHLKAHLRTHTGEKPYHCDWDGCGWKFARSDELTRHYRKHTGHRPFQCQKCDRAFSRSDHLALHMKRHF

B1: *K-1 (dsDNA)
DNA 1: AGGGTGTGGCCCGC
DNA 2: GCGGGCCACACCCT
KLF4 full-length [1]
  binding result: binds

B2: *K-2 (dsDNA)
DNA 1: GGGCCACCCCGCC
DNA 2: GGCGGGGTGGCCC
KLF4 full-length [2]
  binding signal: 100 fold weaker than *K-1

B3: *P (dsDNA)
DNA 1: GGACATGTCCGGACATGTCC
DNA 2: GGACATGTCCGGACATGTCC
KLF4 full-length [3]
  binding result: no binding
